Results as given in the Human Domainome abundance scans (Beltran et al. 2025).

B1: PDZ and LIM domain protein 2, residues 284 to 339; numbered along this chain, Q96JY6 (parent)
chain: HTCEKCSTSIANQAVRIQEGRYRHPGCYTCADCGLNLKMRGHFWVGDELYCEKHAR

Variants of: B1
Assay: abundance fitness (aPCA) (normalised: wild type 0, dead -1); higher = more abundant; growth selection in yeast, the domain comes from the species named
Conditions: Homo sapiens

Abundance fitness, by site and new letter:
K5: T 0.104 | V 0.055 | W -0.553 | Y 0.508
C6: A -0.408 | D -0.15 | E -0.382 | F -0.667 | G -0.437 | H -0.535 | I -0.135 | K -0.264 | L -0.597 | M -0.523 | N -0.508 | P -0.336 | Q -0.199 | R -0.266 | T -0.48 | V -0.282 | W -0.872 | Y -0.743
S7: A 0.085 | C 0.023 | D -0.55 | E -0.878 | F -0.137 | G 0.018 | H -0.212 | I -0.047 | L -0.09 | M -0.083 | N -0.294 | P -0.613 | R -0.216 | T 0.008 | V -0.16 | W -0.641 | Y -0.614
T8: A 0.308 | D 0.232 | E 0.387 | F -0.111 | G 0.153 | H 0.173 | I -0.361 | K 0.255 | L 0.004 | M -0.099 | N 0.221 | Q 0.056 | S 0.139 | V 0.189 | W -0.068 | Y 0.119
S9: A 0.199 | C -0.365 | D 0.277 | F -1.09 | G -0.08 | H -0.539 | I -0.764 | L -0.767 | M -0.62 | N -0.058 | P -0.376 | Q -0.079 | R -0.34 | T -0.271 | V -0.485 | W -1.01 | Y -1.02
I10: C -0.062 | D -0.041 | E 0.006 | G -0.312 | H -0.735 | K -0.488 | L -0.413 | M -0.425 | N -0.119 | Q -0.242 | R -0.445 | S -0.505 | T -0.14 | V -0.187 | W -0.488 | Y -0.809
A11: C -0.446 | D 0.321 | F -1.16 | G 0.017 | H -0.085 | L -0.827 | M -0.521 | N 0.351 | P 0.118 | Q -0.253 | R -0.231 | S 0.196 | T -0.016 | Y -0.643
N12: A -0.096 | C -0.135 | D 0.595 | E 0.498 | F -0.494 | G -0.408 | H 0.219 | I 0.021 | K -0.295 | M -0.123 | Q -0.044 | R -0.73 | S -0.028 | T 0.14 | V -0.206 | W -0.78 | Y -0.622
Q13: A -0.399 | C -0.216 | D 0.448 | E 0.194 | F -0.049 | G 0.098 | H -0.767 | I -0.778 | K -0.501 | L -0.36 | M -0.223 | P -0.227 | R -0.826 | S -0.128 | T -0.11 | V -0.327 | W -1.19 | Y -0.775
A14: C -0.139 | D -0.33 | E 0.143 | F 0.188 | G -0.254 | H -0.247 | I -0.07 | K -0.417 | N -0.023 | Q -0.329 | R -0.466 | S -0.179 | T -0.468 | V -0.208 | W -0.182 | Y -0.209
V15: A -0.625 | C -0.317 | D -0.115 | E 0.272 | F -0.38 | G -0.33 | H -0.099 | I -0.105 | K 0.052 | L -0.248 | M -0.283 | P -0.654 | Q -0.115 | R -0.596 | S -0.231 | T -0.018 | W -0.875 | Y -0.499
R16: A 0.2 | C 0.32 | D -0.091 | E 0.037 | F 0.215 | G -0.015 | H 0.004 | I 0.172 | K 0.223 | L 0.168 | M 0.2 | N 0.191 | P 0.209 | Q 0.308 | S 0.112 | T 0.137 | V 0.146 | W 0.298 | Y 0.029
I17: A -0.341 | C -0.453 | D -0.232 | E -0.325 | G -0.239 | H -0.781 | K -0.427 | L -0.121 | M -0.372 | P -0.336 | Q -0.535 | R -0.599 | T -0.311 | V -0.106 | W -0.533 | Y -0.437
Q18: A 0.043 | C -0.087 | D -0.032 | E 0.002 | F -0.303 | G -0.088 | H -0.451 | I 0.228 | K -0.141 | L -0.077 | M -0.253 | N -0.248 | P -0.47 | R -0.062 | S 0.03 | T -0.051 | V 0.008
E19: A -0.165 | C -0.447 | D -0.374 | F -0.672 | G -0.375 | H -0.292 | K 0.01 | L -0.237 | M -0.163 | N -0.453 | P -0.211 | Q -0.071 | R -0.12 | S -0.197 | T -0.068 | V -0.495 | W -0.624 | Y -0.549
G20: A -0.251 | C -0.339 | E -0.209 | F 0.116 | H -0.119 | I -0.257 | K -0.023 | L -0.452 | M -0.154 | N 0.006 | P -0.63 | Q -0.56 | R -0.136 | S -0.29 | T -0.129 | V -0.363 | W -0.497 | Y -0.174
R21: A 0.015 | C -0.069 | D -0.217 | E -0.286 | F -0.01 | G -0.251 | H -0.015 | I -0.046 | K 0.002 | L -0.01 | M 0.035 | N -0.259 | P -0.101 | S -0.02 | T 0.151 | V 0.11 | Y -0.008
Y22: A -0.269 | C -0.348 | F 0.108 | G -0.411 | H -0.398 | I -0.691 | K -0.311 | L -0.349 | M -0.532 | N -0.32 | P -0.496 | Q -0.02 | R -0.333 | S -0.292 | T -0.477 | V -0.321 | W -0.014
R23: A -0.108 | C -0.238 | D -0.486 | E -0.318 | F -0.391 | G -0.457 | H -0.302 | I -0.69 | K -0.315 | L -0.212 | M -0.317 | N -0.173 | P -0.111 | Q -0.509 | S -0.278 | T -0.125 | V -0.075 | W -0.431 | Y -0.303
H24: A -0.307 | C 0.309 | D -0.047 | E -0.439 | F -0.938 | G -0.489 | I -0.973 | K -0.193 | L -0.898 | M -0.492 | N -0.345 | P -0.582 | Q -0.186 | R -0.435 | S -0.264 | W -0.788
P25: A 0.113 | C -0.546 | D 0.323 | E 0.402 | F -0.492 | G -0.053
